Experimental data from the supplement of paper PMC10724198.
± gives the standard deviation of the averaged measurements.

Test system: Saccharomyces cerevisiae
Test: protein stability index of tFT-peptide fusion (C-terminal peptide) (PSI (0-1 scale)); higher = more stable (slower turnover)
Settings: temperature: 30 C
Protocol: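 MPS profiling in S. cerevisiae of the yeast C-terminome library: the last 12 aa of each annotated ORF are fused to the C-terminus of a sfGFP-mCherry timer, after a GGGS linker. Cells are FACS-sorted into 8 mCherry/sfGFP bins and deep-sequenced. PSI runs from 0 (unstable) to 1 (stable); wild type and das1Δ backgrounds, two technical replicates each.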

[1] = genetic background: das1 deletion

Sequence	protein stability index [1]	protein stability index (genetic background: wild type)
GHNWLIFTRRRL [CBT1 C-terminal 12 aa]	0.718 ± 0.012	0.707 ± 0.0083
GIMVSPMKTNQR [SWI5 C-terminal 12 aa]	0.708 ± 0.025	0.6993 ± 0.0062
GIVNFWSLEKAA [CIA1 C-terminal 12 aa]	0.716 ± 0.012	0.633 ± 0.011
GIYSAVIDQTGF [RRP9 C-terminal 12 aa]	0.705 ± 0.011	0.6868 ± 0.003
GKFKSAVFEHAG [SRV2 C-terminal 12 aa]	0.703 ± 0.026	0.71 ± 0.019
GKKGQHVGCCVC [YFL066C C-terminal 12 aa]	0.722 ± 0.0084	0.691 ± 0.046
GKLLVPLVLYQI [YDR182W-A C-terminal 12 aa]	0.673 ± 0.019	0.535 ± 0.0071
GKLPSSLLSYFV [ZUO1 C-terminal 12 aa]	0.7219 ± 0.0065	0.673 ± 0.032
GKRNYLLSVTFV [YCR006C C-terminal 12 aa]	0.653 ± 0.012	0.6385 ± 0.0019
GKWYCDDCKKKL [PHO23 C-terminal 12 aa]	0.729 ± 0.026	0.717 ± 0.048
GLSIDTRSAYFV [YPL251W C-terminal 12 aa]	0.725 ± 0.019	0.68 ± 0.026
GLSPIRYFIPQH [YNL114C C-terminal 12 aa]	0.659 ± 0.017	0.6812 ± 0.0052
GNLRDTLIETYS [TIF6 C-terminal 12 aa]	0.6559 ± 0.0033	0.679 ± 0.0088
GNNGNNNNTTNL [PET123 C-terminal 12 aa]	0.672 ± 0.008	0.669 ± 0.0096
GNSVNPYNGRIN [SGF73 C-terminal 12 aa]	0.718 ± 0.019	0.735 ± 0.0081
GNTENGTLKKKH [BSC5 C-terminal 12 aa]	0.685 ± 0.0072	0.667 ± 0.037
GPCCMYIGCGCG [YBR056C-B C-terminal 12 aa]	0.6658 ± 0.0036	0.686 ± 0.032

Sequence	protein stability index [1]	protein stability index (genetic background: wild type)
GPCVDALLSLSE [VPS9 C-terminal 12 aa]	0.74 ± 0.0083	0.716 ± 0.048
GPEKAAELAFLA [YML079W C-terminal 12 aa]	0.685 ± 0.024	0.6497 ± 0.0026
GQVIDPLKAPFK [UTP14 C-terminal 12 aa]	0.6757 ± 0.0012	0.691 ± 0.043
GRPEQAPECKQS [NAP1 C-terminal 12 aa]	0.688 ± 0.0078	0.648 ± 0.011
GSEHSDPFSTFY [DBF20 C-terminal 12 aa]	0.748 ± 0.0093	0.7245 ± 0.0011
GVAKSMGIKVVP [MRPL19 C-terminal 12 aa]	0.652 ± 0.0064	0.686 ± 0.044
GVALAGALAFLI [HOR7 C-terminal 12 aa]	0.68751 ± 0.00021	0.66173 ± 0.00053
GVEKYWGILSSD [SCW10 C-terminal 12 aa]	0.7123 ± 0.0033	0.716 ± 0.028
GYLIWSMGNRRR [YFL051C C-terminal 12 aa]	0.731 ± 0.018	0.71 ± 0.016
HAAEQILKHFAA [THI4 C-terminal 12 aa]	0.697 ± 0.013	0.708 ± 0.015
HATTVIDGKIKV [YHI9 C-terminal 12 aa]	0.693 ± 0.0079	0.688 ± 0.039
HDDKPWYKAMLE [GAL2 C-terminal 12 aa]	0.7493 ± 0.0048	0.733 ± 0.053
HFANFKRTIEEK [AMD1 C-terminal 12 aa]	0.729 ± 0.049	0.6925 ± 0.0065
HFCYIGRITTHT [YDL114W-A C-terminal 12 aa]	0.681 ± 0.017	0.689 ± 0.018
HFLQKFFKLFDN [YMR052C-A C-terminal 12 aa]	0.734 ± 0.0093	0.687 ± 0.015
HGGTISLCRFGG [SWT21 C-terminal 12 aa]	0.686 ± 0.023	0.658 ± 0.015
